Measured values published in patent publication US20120114667A1 (AstraZeneca / MedImmune, published 2012).
Changes are numbered by the printed parent chain.

B1: 2E10.1B9 (antibody, IgG2, V domains shown)
VH: RVQLQESGPGLVKPTQTLSLTCTVSGGSIISGGYFWTWIRQHPGKGLEWIGYIYYSGSTYYSPSLKSRVTISVDTSKNQFSLKLSSVTAADTAVYYCTRAVPAAKGYYSYYGMDVWGQGTTVTVSS
VL: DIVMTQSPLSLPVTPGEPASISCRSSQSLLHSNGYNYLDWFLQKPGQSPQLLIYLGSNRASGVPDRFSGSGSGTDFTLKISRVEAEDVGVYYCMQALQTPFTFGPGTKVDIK
B2: 2A9.1A1 (antibody, IgG2, V domains shown)
VH: B1 VH
VL: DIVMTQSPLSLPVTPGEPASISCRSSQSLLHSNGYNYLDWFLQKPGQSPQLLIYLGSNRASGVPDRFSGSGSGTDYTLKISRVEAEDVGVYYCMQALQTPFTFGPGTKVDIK
B3: 2C5.2B12 (antibody, IgG2, V domains shown)
VH: B1 VH
VL: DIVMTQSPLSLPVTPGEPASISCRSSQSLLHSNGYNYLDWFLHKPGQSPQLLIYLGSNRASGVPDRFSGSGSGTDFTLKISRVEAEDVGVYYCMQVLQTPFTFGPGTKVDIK
B4: 3C2.2A8 (antibody, IgG2, V domains shown)
VH: B1 VH
VL: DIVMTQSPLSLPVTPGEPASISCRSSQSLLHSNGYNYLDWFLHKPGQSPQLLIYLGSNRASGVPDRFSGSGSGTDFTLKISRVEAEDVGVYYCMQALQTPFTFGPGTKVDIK
notes: also called mAb 3C2.2A8
B5: 3G11.1A6 (antibody, IgG2, V domains shown)
VH: B1 VH with G27S
VL: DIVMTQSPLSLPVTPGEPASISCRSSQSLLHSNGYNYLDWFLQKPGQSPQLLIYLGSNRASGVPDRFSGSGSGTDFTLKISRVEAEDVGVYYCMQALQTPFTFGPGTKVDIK
B6: 9E2.3A8 (antibody, IgG4, V domains shown)
VH: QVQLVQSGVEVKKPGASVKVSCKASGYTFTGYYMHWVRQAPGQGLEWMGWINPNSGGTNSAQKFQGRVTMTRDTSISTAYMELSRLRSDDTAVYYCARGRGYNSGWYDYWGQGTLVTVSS
VL: DIVMTQSPDSLAVSLGERATINCKSSQSVLHNSHNENYLTWYQQKPGQPPKLLIYWASSRESGVPDRFSGSGSGTDFTLSISSLQADDVAVYYCQQYFSNPWTFGQGTKVEIK
B7: 8A6.1A3 (antibody, IgG4, V domains shown)
VH: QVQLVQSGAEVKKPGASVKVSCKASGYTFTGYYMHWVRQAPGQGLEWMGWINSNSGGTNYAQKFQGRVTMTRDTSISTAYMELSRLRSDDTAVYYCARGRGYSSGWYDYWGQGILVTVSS
VL: B6 VL with L30F, H31F, N32S, H34S, S59T, S80T, D87E, F98Y, S99N, N100I
B8: 7B2.3B10 (antibody, IgG4, V domains shown)
VH: QVQLVESGGGVVQPGRSLRLSCAASGFTFSSYGMHWVRQAPGKGLEWVAVIWYDGSYKYYADSVQGRFTISRDNSKNTLYLQMNSLRAEDTAVYYCARDKGGHYFDYWGQGTLVTVSS
VL: DIQMTQSPSSLSASVGDRVTITCRASQSISSYLNWYQQKPGKAPKLLIYAASSLQSGVPSRFSGSGSGTDFTLTISSLQPEDFATYYCQQNFSFPPEWTFGQGTKVEIK

What was measured:
[1] = target: T1, Macaque α5β1 (Macaque); assay: FACS on macaque PBMC, 1 mM Mn2+
T1 construct: whole, on cells; macaque species not specified; also called monkey α5β1; monkey integrin
Procedure: To determine whether the antibodies cross reacted to monkey integrin, binding to purified Macaque T-cells was assessed. Macaque PBMCs were previously purified from whole blood, and stored frozen. Macaque PBMCs were suspended in adhesion buffer with HBSS 1% BSA and 1 mM Mn2+ (“FACS buffer”), at a concentration of 4.8×10⁵ live cells per ml. 12.5 uL of the primary antibody was added to 37.5 ul of cells, and incubated at 4° C. for 1 hour. Positive and negative controls were included as indicated. 100 uL of FACs buffer is added to dilute out primary antibody, the cells washed and resuspended in the appropriate secondary at 2 ug/mL (50 uL) with 10 ug/mL 7AAD, and stained on ice for 7 minutes. 100 uL of FACs buffer was added and cells were washed twice in FACS buffer, finally the supernatant removed and the cells were resuspended in 100 uL of buffer.
Samples were read on HTS FACS machine and analyzed using Cell Quest Pro software. The data shown in Table 7 confirm that the antibodies cross react with monkey α5β1.

[2] = target: T2, human α5β1 integrin (human, UniProt P08648 42-1049; P05556 21-798); assay: cell-based or functional assay
T2 sequence (P08648 42-1049, chain 1 of 2): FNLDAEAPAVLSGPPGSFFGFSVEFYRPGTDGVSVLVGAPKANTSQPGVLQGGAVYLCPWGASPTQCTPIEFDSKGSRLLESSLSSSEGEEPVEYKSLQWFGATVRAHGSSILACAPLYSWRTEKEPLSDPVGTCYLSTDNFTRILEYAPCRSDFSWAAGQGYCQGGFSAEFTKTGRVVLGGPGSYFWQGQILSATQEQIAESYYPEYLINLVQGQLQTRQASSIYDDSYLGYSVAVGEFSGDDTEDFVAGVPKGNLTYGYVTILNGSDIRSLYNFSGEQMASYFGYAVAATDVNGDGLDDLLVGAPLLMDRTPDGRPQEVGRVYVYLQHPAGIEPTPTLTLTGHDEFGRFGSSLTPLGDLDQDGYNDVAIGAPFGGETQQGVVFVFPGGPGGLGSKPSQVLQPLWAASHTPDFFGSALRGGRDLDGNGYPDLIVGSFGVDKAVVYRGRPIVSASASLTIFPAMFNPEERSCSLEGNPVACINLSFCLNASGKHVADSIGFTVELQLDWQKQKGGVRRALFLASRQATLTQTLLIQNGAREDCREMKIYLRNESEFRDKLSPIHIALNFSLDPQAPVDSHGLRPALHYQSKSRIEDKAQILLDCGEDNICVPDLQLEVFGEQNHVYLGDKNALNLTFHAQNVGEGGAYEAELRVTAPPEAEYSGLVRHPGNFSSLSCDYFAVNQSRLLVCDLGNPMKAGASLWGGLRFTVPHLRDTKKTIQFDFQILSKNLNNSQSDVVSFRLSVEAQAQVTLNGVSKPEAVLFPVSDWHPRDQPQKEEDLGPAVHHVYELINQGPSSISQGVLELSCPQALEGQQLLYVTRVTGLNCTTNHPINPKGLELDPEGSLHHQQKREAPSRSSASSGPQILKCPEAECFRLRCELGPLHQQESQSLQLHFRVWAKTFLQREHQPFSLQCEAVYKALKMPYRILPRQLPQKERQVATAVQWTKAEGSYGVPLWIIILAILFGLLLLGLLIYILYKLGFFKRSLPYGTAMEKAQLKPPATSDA
T2 sequence (P05556 21-798, chain 2 of 2): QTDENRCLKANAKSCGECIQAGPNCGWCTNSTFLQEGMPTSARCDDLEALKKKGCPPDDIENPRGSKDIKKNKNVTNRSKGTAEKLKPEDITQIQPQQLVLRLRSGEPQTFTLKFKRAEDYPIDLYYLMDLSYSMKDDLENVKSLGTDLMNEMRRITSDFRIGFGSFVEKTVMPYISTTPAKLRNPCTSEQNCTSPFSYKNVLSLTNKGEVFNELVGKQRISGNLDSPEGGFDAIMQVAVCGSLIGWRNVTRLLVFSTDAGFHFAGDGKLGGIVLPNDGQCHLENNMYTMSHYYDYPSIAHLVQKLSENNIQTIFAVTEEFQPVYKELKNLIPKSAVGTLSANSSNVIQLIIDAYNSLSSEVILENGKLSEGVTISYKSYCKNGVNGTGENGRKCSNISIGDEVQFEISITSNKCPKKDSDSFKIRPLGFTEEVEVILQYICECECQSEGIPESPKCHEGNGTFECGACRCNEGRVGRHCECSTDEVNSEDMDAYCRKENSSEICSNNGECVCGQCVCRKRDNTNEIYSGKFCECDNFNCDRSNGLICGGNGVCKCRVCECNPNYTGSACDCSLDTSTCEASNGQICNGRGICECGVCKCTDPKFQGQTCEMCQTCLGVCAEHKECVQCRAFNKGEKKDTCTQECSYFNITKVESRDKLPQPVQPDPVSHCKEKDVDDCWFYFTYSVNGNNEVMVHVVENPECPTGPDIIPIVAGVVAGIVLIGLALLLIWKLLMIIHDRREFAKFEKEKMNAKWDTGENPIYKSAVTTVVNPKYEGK

[3] = target: T3, β1 integrin chain on HT29 cells (α5 null line) (human, UniProt P05556 21-798); assay: FACS on HT29 cells (no α5, β1 present)
T3 construct: whole, on cells; β1 is paired with alpha chains other than α5 on these cells; also called β1 chain; beta1
T3 sequence (P05556 21-798): as the sequence (P05556 21-798, chain 2 of 2) above
Procedure: To confirm the antibodies bind to the α5 chain or to the α5β1 heterodimer, binding to Human colon adenocarcinoma grade II cells (HT29 cells) was assessed by FACS. […] HT-29 cells were suspended in HBSS with 1% BSA and 1 mM final MnCL₂ at a concentration of 6×10⁵ cells/ml.12.5 uL of the primary antibody was added to 37.5 ul of cells and the plate incubated on ice for 60 minutes. A range of negative controls were included as described previously (indicated as below). In addition as a positive control antibodies to αvβ6 (Mab2077, Chemicon), α5β1 (Mab1909, Chemicon) and av (L230, Chemicon) were included. 100 uL of HBSS buffer was added to dilute primary antibody, the cells pelleted by centrifuging at 1500 rpm for 3 minutes and resuspended in 50 ul Goat anti-human IgG Fc Cy5 or Goat anti Mouse IgG Fc Cy5 secondary at 2 ug/mL. They were then incubated on ice for a further 7 minutes, and 100 uL of HBSS buffer was added to dilute secondary antibody. Finally cells were pelleted by centrifuging at 1500 rpm for 3 minutes, HBSS Buffer/secondary supernatant removed, washed twice in 100 ul of FACS buffer was added and the cells were resuspended and then read on a FACS Calibur HTS. Samples were analyzed using Cell Quest Pro software. The data is represented in Table 6 and confirm that the antibodies are selective for α5β1.

[4] = target: T4, α4β1 integrin on J6.77 Jurkat cells (UniProt P13612 34-1032; P05556 21-798); assay: cell-based or functional assay
T4 sequence (P13612 34-1032, chain 1 of 2): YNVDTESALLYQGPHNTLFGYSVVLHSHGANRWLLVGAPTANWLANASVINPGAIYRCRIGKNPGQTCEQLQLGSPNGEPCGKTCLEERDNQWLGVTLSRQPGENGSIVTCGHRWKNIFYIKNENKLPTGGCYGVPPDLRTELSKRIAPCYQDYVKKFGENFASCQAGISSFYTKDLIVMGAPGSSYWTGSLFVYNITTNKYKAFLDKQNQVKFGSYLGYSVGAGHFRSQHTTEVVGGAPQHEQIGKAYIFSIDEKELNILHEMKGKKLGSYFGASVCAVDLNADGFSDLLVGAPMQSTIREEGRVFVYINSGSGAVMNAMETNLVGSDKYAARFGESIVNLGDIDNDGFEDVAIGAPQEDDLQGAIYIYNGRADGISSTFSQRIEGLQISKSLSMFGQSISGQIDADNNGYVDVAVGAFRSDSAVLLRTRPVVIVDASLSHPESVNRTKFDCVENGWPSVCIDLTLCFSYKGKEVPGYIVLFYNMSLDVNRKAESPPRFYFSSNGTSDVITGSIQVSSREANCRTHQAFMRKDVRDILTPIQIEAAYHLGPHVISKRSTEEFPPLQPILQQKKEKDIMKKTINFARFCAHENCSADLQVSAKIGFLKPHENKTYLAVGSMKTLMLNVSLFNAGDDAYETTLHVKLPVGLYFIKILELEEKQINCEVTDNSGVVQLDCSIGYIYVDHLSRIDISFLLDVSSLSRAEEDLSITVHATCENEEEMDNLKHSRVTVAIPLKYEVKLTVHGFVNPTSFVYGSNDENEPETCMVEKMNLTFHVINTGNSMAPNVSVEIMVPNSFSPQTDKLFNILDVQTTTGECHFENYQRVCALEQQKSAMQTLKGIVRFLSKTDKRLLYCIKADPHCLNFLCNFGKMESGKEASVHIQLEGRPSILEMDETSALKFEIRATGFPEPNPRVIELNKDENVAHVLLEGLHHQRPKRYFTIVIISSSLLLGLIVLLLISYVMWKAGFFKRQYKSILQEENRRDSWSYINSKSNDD
T4 sequence (P05556 21-798, chain 2 of 2): as the sequence (P05556 21-798, chain 2 of 2) above

[5] = target: T2, human α5β1 integrin; assay: cell-based or functional assay; remark: listed apart in the source
[6] = target: T4, α4β1 integrin on J6.77 Jurkat cells; assay: cell-based or functional assay; remark: listed apart in the source

Binder | Geo Mean on Macaque T-cells IgG detection [1] | % Inhibition of cell adhesion n = 1 (K562 on full length FN) [2] [%] | % Inhibition of cell adhesion n = 2 (K562 on full length FN) [2] [%] | % Inhibition of cell adhesion n = 3 (K562 on GST-FNIII(9-10), no pre-incubation) [2] [%] | % Inhibition of cell adhesion n = 4 (K562 on GST-FNIII(9-10), supernatant 1 in 10) [2] [%] | % Inhibition of cell adhesion n = 5 (K562 on GST-FNIII(9-10), supernatant 1 in 10) [2] [%] | Binding Geomean [3] | binding result [3] | % Inhibition of adhesion CS1 n = 1 (J6.77 Jurkat on GST-CS-1) [4] [%] | % Inhibition of adhesion CS1 n = 2 (J6.77 Jurkat on GST-CS-1) [4] [%] | IC50 ng/mL (K562 adhesion to GST-FNIII(9-10)) [5] [ng/mL] | Average % inhibition at 5 ug/ml (J6 adhesion to GST-CS-1) [6] [%]
B1 | 12 | 97 | 94 | 96 | 86 | 87 | 3.11 | no binding | 31 | -5 | – | –
B2 | 12 | 100 | 94 | 96 | 94 | 100 | 4.73 | no binding | 2 | 11 | 14.1 | -19
B3 | 11 | 100 | 96 | 101 | 96 | 97 | 3.6 | no binding | 14 | -5 | 11.9 | 18
B4 | 10 | 99 | 100 | 102 | 94 | 96 | 3.29 | no binding | 22 | 18 | 12.4 | 1
B5 | 13 | 99 | 99 | 93 | 92 | 100 | 3.02 | no binding | 17 | 9 | 9 | -2
B6 | 12 | 98 | 100 | 94 | 94 | 87 | 2.86 | no binding | 40 | 10 | 73.4 | 2
B7 | 11 | 99 | 95 | 91 | 92 | 90 | 2.99 | no binding | 24 | 9 | 52.2 | -23
B8 | 12 | 93 | 100 | 94 | 85 | 75 | 3.1 | no binding | 45 | 21 | 57 | -14
